Reference: patent US20240390459A1, “ANTI-DEPRESSION AND ANTI-ANXIETY APPLICATION OF POLYPEPTIDE AND COMPLEX” (SHENZHEN CHENYANG BIOLOGICAL TECHNOLOGY CO., LTD, priority 2021, published 2024)
Ends that are not written are not given here.

What was measured:
[1] = molecular target: T1, D1R from mouse hippocampus tissue (Mus musculus, UniProt Q61616); experiment: GST pulldown analysis of mouse hippocampus tissue extract with Western blot; assay type: binding; conditions: 15 μg GST fusion protein, 500 μg mouse hippocampus tissue extract, overnight 4° C.
T1 construct: from tissue; host or cells: mouse hippocampus tissue extract
Text: In order to confirm the interbinding site of the 5-HT2AR/D1R complex, the 5-HT2AR full-length cDNA clone (Genbank Accession No.: NM_001378924) was first amplified to obtain cDNA fragments of the CT region of 5-HT2AR (K385-V471) and the third intracellular loop (IL3) region of 5-HT2AR (F255-V324). These fragments were subcloned to the BamH1/EcoR1 or BamH1/Xho1 site of a pGEX-4T-3 plasmid (YouBio no: VT1255). The initial methionine residue and termination codon were incorporated as appropriate. All constructs were resequenced to confirm that splicing and fusion was achieved appropriately. The GST fusion protein containing the third intracellular loop (IL3) of 5-HT2AR (GST-5HT2AR-IL3) and the GST fusion protein containing the CT region of 5-HT2AR (GST-5HT2AR-CT) were expressed from E. coli BL21 viable cells (AlpalifeBio, no: KTSM104L) and purified from bacterial lysate solution.
500 μg of dissolved mouse hippocampus tissue extract was diluted with 1×PBS/1% Triton X-100 and then incubated overnight with 20 μl protein GST resin saturated GST protein or 15 μg GST fusion protein at 4° C. Beads were washed 1-8 times with 1×PBS/1% Triton X-100. Binding proteins were eluted with 2×loading buffer, separated by SDS-PAGE, and underwent Western blot with respective antibodies thereof.
According to the method in the present Example, a pulldown analysis was performed using a GST fusion protein containing a KV region of 5-HT2AR (GST-5HT2AR-KV), a GST fusion protein containing a NN region of 5-HT2AR (GST-5HT2AR-NN), and a GST fusion protein containing a DV region of 5-HT2AR (GST-5HT2AR-DV), and the results of Western blot were shown in FIG. 4 B.
According to the method in the present Example, a pulldown analysis was performed using a GST fusion protein containing a DA region of 5-HT2AR (GST-5HT2AR-DA), and a GST fusion protein containing a SV region of 5-HT2AR (GST-5HT2AR-SV), and the results of Western blot were shown in FIG. 4 C.

[2] = test system: mice; experiment: Elevated plus maze test (EPM); assay type: in vivo, mouse; conditions: single intraperitoneal 3 nmol/g, 1 hour after treatment, 5 min, vs TAT
Experimental: (§1) To evaluate the antianxiety-like effect of the polypeptide of the present invention, mice treated with TAT-5HT2AR-SV, TAT-5HT2AR-DV, TAT-5HT2AR-CT (all treated by single intraperitoneal administration, 3 nmol/g) were subjected to open field test (OFT) for measuring residence time in central area and elevated plus maze test (EPM) 1 hour after treatment, with TAT-treated mice as control. Methods for the tests are as follows:
EPM: consists of two open arms (25 cm×8 cm) and two closed arms (25 cm×8 cm), with the intersection as the central area (8 cm×8 cm), which is 40 cm high from the ground. 1 hour after treated with the polypeptide, mice were placed in the central area facing the open arm, and were recorded for their free activities for 5 min. After each animal was tested, the device was wiped with 70% alcohol. The residence time at the open arm, the residence time at the closed arm, and the total movement distance of mice were recorded.

[3] = molecular target: T2, 5-HT2AR/D1R complex (Mus musculus, UniProt Q61616); experiment: Co-immunoprecipitation of hippocampus tissue from polypeptide-treated CRS, CMS and CSDS mice; assay type: in vivo; conditions: hippocampus tissue of stressed CRS, single intraperitoneal 3 nmol/g, vs TAT
T2 construct: Co-immunoprecipitation was performed using protein samples (100-500 μg protein) from mouse hippocampus tissue; from tissue; host or cells: hippocampus tissue of treated mice (naive, CRS, CMS, CSDS)
Experimental: (§2) Co-immunoprecipitation was performed using protein samples (100-500 μg protein) from mouse hippocampus tissue. Precipitation was performed using a mouse antibody against 5-HT2AR (SantaCruz Biotechnology, sc-166775) and 25 μl protein A/G plus agarose bead slurry (santaCruz Biotechnology, sc-2001).
Western blot analysis was carried out after precipitation: the denatured protein was separated on 8% SDS-PAGE gel, then transferred to cellulose nitrate membrane and blocked with TBST; then incubated with mouse antibodies against D1R (SantaCruz Biotechnology, sc-33660) and D2R (SantaCruz Biotechnology, sc-5303) overnight at 4° C.; finally, treated with HRP-coupled secondary antibody for 1 hour, SuperSignal ECL Chemiluminescence Kit was used to detect the signal, and Image Lab software was used to analyze the density of the bands. […]
The treated CRS, CMS and CSDS mice of Example 6 (TAT-5HT2AR-SV, TAT-5HT2AR-DV, TAT-5HT2AR-CT and TAT) were analyzed according to the co-immunoprecipitation method of Example 1, and the Western blot results were shown in FIG. 9, respectively.

[4] = test system: mice; experiment: OFT for residence time in central area; assay type: in vivo, mouse; conditions: single intraperitoneal 3 nmol/g, 1 hour after treatment, 5 min, vs TAT
Experimental: as §1
OFT (for measuring the residence time in central area): open bottom surface was divided into 25 equal-area grids, with the middle 9 grids as the central area. 1 hour after treated with the polypeptide, mice were placed in the central area and recorded for 5 min, and the residence time of mice in the central area was recorded.

[5] = test system: D1R and 5-HT2AR; experiment: Direct Western blot of hippocampus tissue from treated stressed mice; assay type: in vivo, mouse; conditions: CRS, CMS and CSDS mice
Experimental: (§3) Western blot analysis was carried out after precipitation: the denatured protein was separated on 8% SDS-PAGE gel, then transferred to cellulose nitrate membrane and blocked with TBST; then incubated with mouse antibodies against D1R (SantaCruz Biotechnology, sc-33660) and D2R (SantaCruz Biotechnology, sc-5303) overnight at 4° C.; finally, treated with HRP-coupled secondary antibody for 1 hour, SuperSignal ECL Chemiluminescence Kit was used to detect the signal, and Image Lab software was used to analyze the density of the bands.
To further evaluate the ability of the polypeptide as an antidepressant, CRS, CMS and CSDS mouse models were constructed according to the method described in Example 2, respectively; 1 hour after construction, mouse models were treated with 10 μM TAT-5HT2AR-SV, TAT-5HT2AR-DV, TAT-5HT2AR-CT or TAT respectively (all treated by single intraperitoneal administration, 3 nmol/g); then FST and TST were performed on CRS, and FST, TST and sucrose preference test (SPT) were performed on CMS and CSDS mice respectively.
Further, the hippocampus tissue of treated CRS mice was directly analyzed by Western blot to investigate the expression levels of D1R and 5-HT2AR, and the results are shown in FIG. 10.
In addition, CRS, CMS and CSDS mice treated with TAT-5HT2AR-DV or TAT-5HT2AR-CT were tested respectively.

[6] = molecular target: T2, 5-HT2AR/D1R complex; experiment: Co-immunoprecipitation of hippocampus tissue from polypeptide-treated mice; assay type: in vivo; conditions: single intraperitoneal administration 3 nmol/g, 1 hour after treatment, control TAT only
Experimental: as §2, §3
Mice were treated with TAT-5HT2AR-SV, TAT-5HT2AR-DV and TAT-5HT2AR-CT, and mice treated with TAT only were used as control (all treated by single intraperitoneal administration, 3 nmol/g). 1 hour after the treatment, the mice used were analyzed according to the co-immunoprecipitation method in Example 1, and the results are shown in FIG. 5.

[7] = test system: 5-HT2AR and D1R; experiment: Direct Western blot of hippocampus tissue from polypeptide-treated mice; assay type: in vivo; conditions: mouse hippocampus tissue, single intraperitoneal 3 nmol/g, vs TAT
Experimental: as §3
In addition, the hippocampus tissues of TAT-5HT2AR-SV and TAT-treated mice were directly analyzed by Western blot.

[8] = molecular target: T3, 5-HT2A receptor (5-HT2AR), endogenous, from mouse hippocampus tissue (mouse, UniProt P35363 1-471); experiment: co-immunoprecipitation from mouse hippocampus tissue with anti-5-HT2AR antibody, Western blot for D2R
T3 construct: Native protein in a tissue lysate, precipitated with a mouse anti-5-HT2AR antibody (sc-166775)
T3 sequence (P35363 whole entry): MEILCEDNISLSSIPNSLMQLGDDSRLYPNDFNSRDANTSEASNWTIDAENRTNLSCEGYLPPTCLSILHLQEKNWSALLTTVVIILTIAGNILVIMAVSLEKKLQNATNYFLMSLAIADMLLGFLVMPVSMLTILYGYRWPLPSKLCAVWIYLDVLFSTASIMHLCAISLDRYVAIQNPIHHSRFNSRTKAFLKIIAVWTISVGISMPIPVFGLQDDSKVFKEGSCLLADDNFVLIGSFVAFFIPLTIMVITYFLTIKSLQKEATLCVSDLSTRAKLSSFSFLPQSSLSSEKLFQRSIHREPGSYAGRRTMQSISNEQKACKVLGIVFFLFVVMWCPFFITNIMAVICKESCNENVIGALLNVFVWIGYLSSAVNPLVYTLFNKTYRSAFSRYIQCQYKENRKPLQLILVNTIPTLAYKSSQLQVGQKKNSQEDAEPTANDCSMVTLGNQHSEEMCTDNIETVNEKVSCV

T2 sequence (Q61616 whole entry, one chain of several): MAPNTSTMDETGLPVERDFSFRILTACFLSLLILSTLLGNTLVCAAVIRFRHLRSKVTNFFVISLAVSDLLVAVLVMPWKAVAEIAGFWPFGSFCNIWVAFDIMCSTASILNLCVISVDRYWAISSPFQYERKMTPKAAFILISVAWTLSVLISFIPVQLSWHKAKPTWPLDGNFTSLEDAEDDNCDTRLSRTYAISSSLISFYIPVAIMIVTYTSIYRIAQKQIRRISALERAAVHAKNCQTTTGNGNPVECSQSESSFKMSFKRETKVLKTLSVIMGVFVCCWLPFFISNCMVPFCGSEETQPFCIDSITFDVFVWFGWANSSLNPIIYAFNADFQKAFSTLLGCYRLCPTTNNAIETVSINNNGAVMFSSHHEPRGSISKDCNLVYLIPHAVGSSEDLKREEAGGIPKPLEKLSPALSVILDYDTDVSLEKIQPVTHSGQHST
T1 sequence (Q61616 whole entry, the tested form may be a part): as the sequence (Q61616 whole entry, one chain of several) above

Molecule | pulldown of / affinity to D1R [1] | EPM residence time at the closed arm [2] | EPM residence time at the open arm [2] | interaction between 5-HT2AR and D1R (co-immunoprecipitation) [3] | OFT residence time in the central region [4] | D1R and 5-HT2AR levels [5] | interaction of 5-HT2AR/D1R (co-immunoprecipitation) [6] | expression of 5-HT2AR and D1R [7] | also measured
GST-5HT2AR-DV: GST fusion protein containing a DV region of 5-HT2AR (D442-V471) (DCSMVALGKQHSEEASKDNSDGVNEKVSCV; not fully specified (N-terminus); cysteine pairing not given here; also: GST fusion protein) | can pulldown DIR | – | – | – | – | – | – | – | –
GST-5HT2AR-SV: GST fusion protein containing a SV region of 5-HT2AR (S457-V471) (SKDNSDGVNEKVSCV; not fully specified (N-terminus); also: GST fusion protein) | has an affinity to D1R | – | – | – | – | – | – | – | –
TAT-5HT2AR-DV: DV region (D442-V471) of 5-HT2AR fused with TAT (DCSMVALGKQHSEEASKDNSDGVNEKVSCV; cysteine pairing not given here; also: fused with TAT peptide at C-terminal region; UniProt P28223 442-471, looked up, fragment) | – | decreased residence time at the closed arm | significantly increased residence time at the open arm | significantly reduced the interaction between 5-HT2AR and D1R | significantly increased the residence time | did not cause a significant change | successfully destroyed the interaction of 5-HT2AR/D1R | did not cause a significant change | –
Dopamine D2 receptor (D2R), endogenous, from mouse hippocampus tissue (receptor, UniProt P61168 1-444, looked up, Native protein in a tissue lysate, detected by Western blot with sc-5303) MDPLNLSWYDDDLERQNWSRPFNGSEGKPDRPHYNYYAMLLTLLIFIIVFGNVLVCMAVSREKALQTTTNYLIVSLAVADLLVATLVMPWVVYLEVVGEWKFSRIHCDIFVTLDVMMCTASILNLCAISIDRYTAVAMPMLYNTRYSSKRRVTVMIAIVWVLSFTISCPLLFGLNNTDQNECIIANPAFVVYSSIVSFYVPFIVTLLVYIKIYIVLRKRRKRVNTKRSSRAFRANLKTPLKGNCTHPEDMKLCTVIMKSNGSFPVNRRRMDAARRAQELEMEMLSSTSPPERTRYSPIPPSHHQLTLPDPSHHGLHSNPDSPAKPEKNGHAKIVNPRIAKFFEIQTMPNGKTRTSLKTMSRRKLSQQKEKKATQMLAIVLGVFIICWLPFFITHILNIHCDCNIPPVLYSAFTWLGYVNSAVNPIIYTTFNIEFRKAFMKILHC | – | – | – | – | – | – | – | – | binding result [8]: no binding
TAT-5HT2AR-CT: CT region (K385-V471) of 5-HT2AR fused with TAT (peptide, UniProt P28223 385-471, looked up, fragment, C-terminal region fused with TAT peptide, CT region (K385-V471) of 5-HT2AR fused with TAT) KTYRSAFSRYIQCQYKENKKPLQLILVNTIPALAYKSSQLQMGQKKNSKQDAKTTDNDCSMVALGKQHSEEASKDNSDGVNEKVSCV | – | decreased residence time at the closed arm | significantly increased residence time at the open arm | significantly reduced the interaction between 5-HT2AR and D1R | significantly increased the residence time | did not cause a significant change | successfully destroyed the interaction of 5-HT2AR/D1R | did not cause a significant change | –
GST-5HT2AR-CT: GST fusion protein containing the CT region of 5-HT2AR (K385-V471) (protein, left off: a dimerising Fc or GST) KTYRSAFSRYIQCQYKENKKPLQLILVNTIPALAYKSSQLQMGQKKNSKQDAKTTDNDCSMVALGKQHSEEASKDNSDGVNEKVSCV | can pulldown DIR | – | – | – | – | – | – | – | –
